Test results taken from the supplement of paper PMC10126150.
± gives the standard deviation of the averaged measurements.

test system: ATP; assay: switch fluorescence ratio, 500 uM ATP over buffer (Cy3 cluster intensity, sum of 5 cycles each) (fold (ratio)); higher = stronger signal-on switching upon ATP binding; sequences stand for … in TCGTCGGCAGCGTCAGATGTGTATAAGAGACAGTTTTTTTTTTTTTTTTTTTTTTTTT…TC; conditions: aptamer strand: ATP DNA aptamer (quencher-CACCTGGGGGAGTATTGCGGAGGAAGG + anchor), 100 nM annealed; ATP concentration: 500 uM
In short: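 For every switch-domain sequence, the fluorescence ratio is the mean of per-cluster values, each being summed target-cycle Cy3 intensity over summed buffer-cycle Cy3 intensity. Clusters outside 100-1000 RFU were excluded. On a modified Illumina MiSeq flow-cell, the Cy3-labelled switching-strand clusters were annealed to 100 nM quencher-labelled ATP aptamer, imaged in selection buffer and then after 15 min with 500 uM ATP at 22 °C. Five such cycles were run, with NaOH stripping and re-annealing between them.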
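Further: ATP exposure 15 min at 22 °C before imaging.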

Sequence	switch fluorescence ratio
TGTGTTAATA	0.966 ± 0.013
TGTGTTAGGG	0.979 ± 0.049
TGTGTTAGTA	0.9602 ± 0.0053
TGTGTTCTAG	1.005 ± 0.0046
TGTGTTGATG	1.01 ± 0.028
TGTGTTGGGA	0.98 ± 0.016
TGTGTTGGTG	1.02 ± 0.033
TGTGTTGGTT	0.9939 ± 0.0073
TGTGTTTCAA	1.03 ± 0.013
TGTGTTTCTG	1.02 ± 0.019
TGTGTTTTCT	0.9862 ± 0.003
TGTGTTTTTT	0.999 ± 0.02
TGTTAAAAAC	1.082 ± 0.0085
TGTTAAAAAT	1.01 ± 0.029
TGTTAAAATC	0.984 ± 0.058
TGTTAAAGCG	1.06 ± 0.049
TGTTAAAGGA	0.991 ± 0.022
TGTTAAATGT	1.005 ± 0.01
TGTTAAGATA	1.02 ± 0.092
TGTTACCAGC	1.01 ± 0.014
TGTTACGATA	1.1181 ± 0.00041
TGTTAGGATT	0.997 ± 0.014
TGTTAGGTGA	1.07 ± 0.011
TGTTAGTGGT	1.01 ± 0.023
TGTTATAATC	1.08 ± 0.064
TGTTATAGAT	0.987 ± 0.025

Sequence	switch fluorescence ratio
TGTTATAGTT	1.01 ± 0.055
TGTTATATAT	0.993 ± 0.032
TGTTATCAGC	1 ± 0.047
TGTTATGTCC	1 ± 0.023
TGTTATTTCA	1.02 ± 0.0065
TGTTCATATA	1.01 ± 0.021
TGTTCCGGGG	1.013 ± 0.0063
TGTTCGGCGG	1.02 ± 0.036
TGTTCTAAAG	0.997 ± 0.025
TGTTCTAGA	0.987 ± 0.053
TGTTCTGGGG	1.01 ± 0.019
TGTTGAAATC	1.01 ± 0.076
TGTTGAGCAT	1.09 ± 0.089
TGTTGCAATA	1.24 ± 0.4
TGTTGCATAG	1.01 ± 0.047
TGTTGCGTGC	1.03 ± 0.038
TGTTGGAGAA	0.988 ± 0.011
TGTTGGAGTG	1.003 ± 0.0044
TGTTGGCCAG	0.9797 ± 0.0075
TGTTGGCGGG	0.989 ± 0.015
TGTTGGGATG	1.01 ± 0.02
TGTTGGGCTC	0.989 ± 0.047
TGTTGGGGAT	0.983 ± 0.029
TGTTGGGGGC	1.03 ± 0.12
TGTTGGGTTG	0.999 ± 0.015
TGTTGGTTAG	0.989 ± 0.014

Sequence	switch fluorescence ratio
TGTTGGTTGC	0.988 ± 0.033
TGTTGTATAA	1.2 ± 0.26
TGTTGTATAT	1 ± 0.023
TGTTGTCAAG	1.01 ± 0.026
TGTTGTGCAG	0.958 ± 0.03
TGTTGTGGGG	0.96 ± 0.025
TGTTGTGGTG	1 ± 0.033
TGTTGTTGTA	1.015 ± 0.0081
TGTTGTTTTG	1 ± 0.042
TGTTTAATTT	1.03 ± 0.072
TGTTTAGGAG	1.014 ± 0.0078
TGTTTAGGGG	1.01 ± 0.025
TGTTTATGAC	0.9847 ± 0.0081
TGTTTATTGG	1.01 ± 0.065
TGTTTATTTA	0.983 ± 0.0018
TGTTTCATTT	0.989 ± 0.016
TGTTTCGGTT	0.943 ± 0.044
TGTTTCTATT	0.9925 ± 0.0055
TGTTTGAAAT	0.998 ± 0.034
TGTTTGAGGT	0.999 ± 0.033
TGTTTGCGAA	1.01 ± 0.045
TGTTTGCTTT	0.986 ± 0.023
TGTTTGGGGA	0.997 ± 0.018
TGTTTGGGGT	0.996 ± 0.055
TGTTTGGGTA	1 ± 0.07
TGTTTGGTCA	0.976 ± 0.065

Sequence	switch fluorescence ratio
TGTTTGGTTG	1.01 ± 0.017
TGTTTGTAGA	1.03 ± 0.018
TGTTTGTGCT	0.983 ± 0.027
TGTTTGTTAC	1.011 ± 0.0076
TGTTTGTTCG	0.986 ± 0.021
TGTTTGTTCT	0.976 ± 0.014
TGTTTGTTTG	1 ± 0.036
TGTTTTAACT	1.01 ± 0.017
TGTTTTACTG	0.996 ± 0.015
TGTTTTAGTG	0.994 ± 0.021
TGTTTTATAA	0.995 ± 0.024
TGTTTTCATT	0.973 ± 0.044
TGTTTTCTTT	0.987 ± 0.019
TGTTTTGGCA	0.9963 ± 0.0052
TGTTTTGGG	0.992 ± 0.042
TGTTTTTAA	1 ± 0.062
TTAAAAAACG	1.04 ± 0.052
TTAAAAAAGA	0.998 ± 0.013
TTAAAAAATG	1.03 ± 0.042
TTAAAAATAC	1.06 ± 0.025
TTAAAAATAT	1.02 ± 0.053
TTAAAAATTT	0.976 ± 0.025
TTAAAAGAT	0.998 ± 0.035
TTAAAAGCGA	0.974 ± 0.023
TTAAAAGCGG	1.03 ± 0.013
TTAAAAGGAG	1.01 ± 0.044

Sequence	switch fluorescence ratio
TTAAAAGGG	0.9979 ± 0.007
TTAAAAGGGA	1.02 ± 0.07
TTAAAAGTGT	0.999 ± 0.026
TTAAAATGTA	0.992 ± 0.03
TTAAAATGTG	1.04 ± 0.059
TTAAACCCGC	1.08 ± 0.019
TTAAAGCGGG	1.01 ± 0.012
TTAAAGGGGC	1.03 ± 0.06
TTAAAGTAGC	1.02 ± 0.017
TTAAAGTCAT	1.007 ± 0.0072
TTAAATAATT	0.992 ± 0.019
TTAAATCGGC	0.991 ± 0.043
TTAAATGTTG	1.01 ± 0.059
TTAAATTCGC	0.999 ± 0.0094
TTAAATTGCG	0.994 ± 0.027
TTAACAGTGT	0.964 ± 0.035
TTAACATGGG	1 ± 0.033
TTAACGCAA	3.6 ± 2
TTAACGCCTC	1.0315 ± 0.001
TTAACGGGAG	0.99 ± 0.019
TTAACGGGCT	1.01 ± 0.048
TTAACGGTGT	1.004 ± 0.005
TTAACTGCAC	1.44 ± 0.056
TTAAGAAAAA	1.01 ± 0.016
TTAAGAAGAC	1.04 ± 0.018
TTAAGAATGG	1.01 ± 0.014

Sequence	switch fluorescence ratio
TTAAGAATTC	0.954 ± 0.021
TTAAGACGTA	1.03 ± 0.063
TTAAGACGTC	1.01 ± 0.0011
TTAAGAGGC	1.01 ± 0.2
TTAAGAGGTC	0.979 ± 0.018
TTAAGAGTCT	1.02 ± 0.049
TTAAGAGTTA	1.006 ± 0.01
TTAAGATTCT	0.993 ± 0.037
TTAAGATTTT	0.9935 ± 0.0053
TTAAGCATTT	1.021 ± 0.0047
TTAAGCTTAG	1.01 ± 0.015
TTAAGCTTTT	0.989 ± 0.012
TTAAGGAAAA	1.04 ± 0.071
TTAAGGACGG	0.994 ± 0.065
TTAAGGGGCA	1.02 ± 0.035
TTAAGGGGG	1.03 ± 0.012
TTAAGGGGGG	1 ± 0.031
TTAAGGTATT	1.07 ± 0.12
TTAAGGTGTA	1.1 ± 0.064
TTAAGTCATT	0.986 ± 0.039
TTAAGTCCA	0.995 ± 0.038
TTAAGTGAGG	1.02 ± 0.016
TTAAGTGATT	0.999 ± 0.025
TTAAGTTGTG	0.9827 ± 0.0013
TTAAGTTTGG	1.01 ± 0.027
TTAATAGAGT	1 ± 0.018

Sequence	switch fluorescence ratio
TTAATAGATG	1 ± 0.029
TTAATAGATT	0.998 ± 0.021
TTAATAGTC	1.05 ± 0.0041
TTAATCAGAT	0.9533 ± 0.0093
TTAATCCCAG	1.02 ± 0.021
TTAATCCTTG	1.02 ± 0.034
TTAATCGTGT	0.995 ± 0.037
TTAATCTGCC	1.15 ± 0.025
TTAATGAAGG	1 ± 0.025
TTAATGATTA	0.994 ± 0.034
TTAATGGGAC	1.012 ± 0.0033
TTAATGTT	1.02 ± 0.018
TTAATGTTCA	1 ± 0.031
TTAATGTTGG	0.962 ± 0.046
TTAATTAAAA	0.962 ± 0.043
TTAATTAGTT	1.01 ± 0.023
TTAATTATGA	0.991 ± 0.012
TTAATTATGG	1 ± 0.034
TTAATTCTAC	1.039 ± 0.0063
TTAATTGAAG	0.958 ± 0.04
TTAATTGAGG	0.993 ± 0.044
TTAATTGGGT	1 ± 0.028
TTAATTTGTT	0.988 ± 0.042
TTAATTTTAG	0.9764 ± 0.0094
TTAATTTTGG	1.02 ± 0.012
TTAATTTTTC	1.02 ± 0.03

Sequence	switch fluorescence ratio
TTACAAGAAA	1.03 ± 0.041
TTACAAGGTT	1.02 ± 0.013
TTACAAGTAT	1.03 ± 0.021
TTACAAGTGT	0.993 ± 0.016
TTACAAGTTA	1.05 ± 0.064
TTACAATTTC	1.03 ± 0.056
TTACACATCA	1.083 ± 0.0047
TTACAGGGGA	1.01 ± 0.044
TTACAGGGTA	0.981 ± 0.025
TTACAGTTGG	1.03 ± 0.023
TTACATATGT	1.02 ± 0.021
TTACATGATG	1.01 ± 0.013
TTACATGCTA	1 ± 0.032
TTACATGTAA	0.996 ± 0.023
TTACATTT	1.02 ± 0.017
TTACATTTAT	1.023 ± 0.0083
TTACCATTGG	1.04 ± 0.082
TTACCCTTGG	1.17 ± 0.05
TTACCTGAAC	2.02 ± 0.31
